Article PMC9628495

Tests used:
[1] = molecular target: trastuzumab-PFc41 (L309G/M428L) (human); assay: SPR; Biacore T200; HER2 amine-coupled on a CM5 chip (~3000 RU), trastuzumab-Fc variants captured on it (~300 RU), hFcRn injected at 1000, 500, 250, 125 and 62.5 nM in PBS (printed '10x') with 0.05% Tween 20, pH 6.0, 50 μl/min; 1:1 binding model; 'Steady state' for trastuzumab with wild-type Fc
[2] = molecular target: trastuzumab-YTE (M252Y/S254T/T256E) (human); assay: as above
[3] = molecular target: trastuzumab-LS (M428L/N434S) (human); assay: as above
[4] = molecular target: trastuzumab (wild-type Fc, prepared in-house) (human); assay: as above
[5] = molecular target: trastuzumab-PFc29 (Q311R/M428L) (human); assay: as above
[6] = molecular target: hFcRn-SA-Alexa 488, P55899;P61769; assay: flow cytometry (FACS) of E. coli spheroplasts displaying Fc; details: 40 nM hFcRn-SA-Alexa 488, read off a plot
[7] = molecular target: PFc29 (Q311R/M428L) Fc variant displayed on the E. coli inner membrane (human); assay: flow cytometry on cells; single clones rescued from the fourth round of screening, Fc displayed on E. coli spheroplasts, fluorescent hFcRn probe; screening at pH 5.8, pH of the clone analysis not stated; mean fluorescence intensity
[8] = molecular target: PFc41 (L309G/M428L) Fc variant displayed on the E. coli inner membrane (human); assay: as above
[9] = molecular target: EFc41 (P228L/L234F/E269D/Q342L/E388D/T394A/M428L) Fc variant displayed on the E. coli inner membrane (human); assay: as above
[10] = molecular target: human FcγRIIIa-158V-GST (dimeric GST-fused form) (human)
Chain of human FcγRIIIa-158V-GST (dimeric GST-fused form) (human) (P08637 17-208): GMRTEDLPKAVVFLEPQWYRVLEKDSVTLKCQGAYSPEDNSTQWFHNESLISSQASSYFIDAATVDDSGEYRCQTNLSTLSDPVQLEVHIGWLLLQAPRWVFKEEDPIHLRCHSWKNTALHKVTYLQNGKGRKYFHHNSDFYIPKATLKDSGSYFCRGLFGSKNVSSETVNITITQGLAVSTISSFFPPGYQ

[11] = molecular target: human complement C1q (human) (UniProt P02745)
Chain of UniProt P02745 (P02745 23-245, chain 1 of 3): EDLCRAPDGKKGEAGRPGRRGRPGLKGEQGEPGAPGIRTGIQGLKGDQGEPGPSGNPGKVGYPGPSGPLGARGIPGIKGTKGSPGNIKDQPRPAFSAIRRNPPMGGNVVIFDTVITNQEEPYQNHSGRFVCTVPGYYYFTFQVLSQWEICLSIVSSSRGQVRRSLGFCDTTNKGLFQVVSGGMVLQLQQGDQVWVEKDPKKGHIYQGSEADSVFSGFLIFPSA
Chain of UniProt P02745 (P02746 28-253, chain 2 of 3, further chain): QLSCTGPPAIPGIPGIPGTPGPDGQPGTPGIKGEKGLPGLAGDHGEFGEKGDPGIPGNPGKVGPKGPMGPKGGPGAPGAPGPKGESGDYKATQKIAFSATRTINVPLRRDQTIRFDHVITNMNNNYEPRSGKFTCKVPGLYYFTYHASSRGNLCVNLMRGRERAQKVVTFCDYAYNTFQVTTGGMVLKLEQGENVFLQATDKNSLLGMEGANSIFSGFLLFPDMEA
Chain of UniProt P02745 (P02747 29-245, chain 3 of 3, further chain): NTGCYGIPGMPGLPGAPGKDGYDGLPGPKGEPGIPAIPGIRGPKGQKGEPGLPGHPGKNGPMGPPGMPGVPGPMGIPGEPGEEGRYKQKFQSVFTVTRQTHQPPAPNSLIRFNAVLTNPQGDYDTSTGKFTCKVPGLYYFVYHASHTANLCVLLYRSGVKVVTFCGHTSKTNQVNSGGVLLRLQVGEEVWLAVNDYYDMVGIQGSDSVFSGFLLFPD

[12] = pH 5.8 in the image key (pH 6.0 in the legend), parent: est. 300

Substance: monomeric human FcRn (human FcRn α chain-His complexed with human β2-microglobulin) (from UniProt P55899 24-297; P61769 21-119)
- Kd [1]: 198 nM
- Kd [2]: 147 nM
- Kd [3]: 81.6 nM
- Kd [4]: 647 nM
- Kd [5]: 149 nM

Substance: wild-type Fc displayed on the E. coli inner membrane Q311R
- response [6, 12]: 280 MFI
- response ([6]; pH 7.4, parent: est. 30): 40 MFI

Substance: Alexa 488-labelled hFcRn probe (FcRn-GST or FcRn-streptavidin) (from UniProt P55899 24-297; P61769 21-119) (complex)
- MFI [7]: 1180
- MFI [8]: 1910
- MFI [9]: 862

Substance: trastuzumab-LS (M428L/N434S) (antibody)
- EC50 of ADCC (ADCC Reporter Bioassay; SKBR-3 target cells, FcγRIIIa-158V-expressing engineered Jurkat effector cells; luminescence) [10]: 0.061 µg/mL

Substance: rituximab (wild-type Fc, prepared in-house) (antibody)
- EC50 of CDC (lysis of Raji cells with normal human complement) [11]: 0.33 µg/mL

Substance: trastuzumab (wild-type Fc, prepared in-house) (antibody)
- EC50 of ADCC (ADCC Reporter Bioassay; SKBR-3 target cells, FcγRIIIa-158V-expressing engineered Jurkat effector cells; luminescence) [10]: 0.12 µg/mL

Substance: trastuzumab-PFc29 (Q311R/M428L) (antibody)
- EC50 of ADCC (ADCC Reporter Bioassay; SKBR-3 target cells, FcγRIIIa-158V-expressing engineered Jurkat effector cells; luminescence) [10]: 0.051 µg/mL

Substance: wild-type Fc displayed on the E. coli inner membrane Q311R; M428L
- response ([6]; pH 7.4, parent: est. 30): 80 MFI

Substance: wild-type Fc displayed on the E. coli inner membrane M428L
- response [6, 12]: 430 MFI
- response ([6]; pH 7.4, parent: est. 30): 70 MFI
